The target in assay [1] is human mesothelin-Fc fusion protein (human).
Assay [2] shares this target. As to the kind of experiment: SPR; Biacore T200; human mesothelin-Fc captured via amine-coupled anti-human IgG (Fc) antibody on a CM5 chip; CA-125-His-Avi and anti-mesothelin Fab injected consecutively and conversely (dual injects, 120 s contact each); PBS with 0.05% Tween 20, dilution with 1 mg/ml BSA; 25 °C. On the technique in general: SPR reads the build-up and loss of mass on a sensor chip optically.

The results in this text go back to paper PMC5741731.

Chain of human mesothelin-Fc fusion protein (human) (Q13421 other isoform, or with tags, fused parts or gaps): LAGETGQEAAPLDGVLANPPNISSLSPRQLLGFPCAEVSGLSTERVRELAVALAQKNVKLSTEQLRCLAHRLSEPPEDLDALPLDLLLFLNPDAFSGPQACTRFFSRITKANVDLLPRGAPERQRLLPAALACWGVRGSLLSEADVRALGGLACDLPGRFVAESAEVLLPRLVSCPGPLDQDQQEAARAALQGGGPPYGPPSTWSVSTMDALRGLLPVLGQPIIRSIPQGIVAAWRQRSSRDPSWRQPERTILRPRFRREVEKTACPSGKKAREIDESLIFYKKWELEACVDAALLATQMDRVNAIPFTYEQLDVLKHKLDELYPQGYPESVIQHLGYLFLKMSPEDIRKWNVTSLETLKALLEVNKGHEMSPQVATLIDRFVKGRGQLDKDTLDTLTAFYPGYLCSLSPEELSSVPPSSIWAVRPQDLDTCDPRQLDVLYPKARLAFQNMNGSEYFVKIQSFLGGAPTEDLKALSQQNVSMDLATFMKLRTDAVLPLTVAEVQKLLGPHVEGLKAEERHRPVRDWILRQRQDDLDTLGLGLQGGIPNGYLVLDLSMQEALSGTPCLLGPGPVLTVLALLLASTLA

Turning to “CA-125-HisAvi (recombinant CA-125, extracellular portion) (domain or fragment)”, in assay [1], the the same heterotypic cell adhesion after pre-incubation of the NCI-H358-MSLN clones with RG7787 Fab: no NCI-H358 cells recovered for clones 4D8, 4H3 and 1G2; clone 2C5 only partly blocked was determined as 10%. The same substance came in with an occupancy of mesothelin at maximal saturation in assay [2] of 70%.
